Measurements from article PMC7587188.

Biological target: B-Glucosidase
Test: ITC; 1 mM BSA in the syringe, 10 uL injections into 66 uM B-GLU in the cell; 25 °C; PBS pH 6; VP-ITC; fitted with AFFINImeter, independent sites approach (GoF = 50.81%)

Ka: 530000 M⁻¹
Kd: 1900 nM
dH: -0.26 kcal/mol
stoichiometry N: 1.23
Substance: Bovine Serum Albumin (from UniProt P02769 25-607) (natural protein)
